Source: PMC4222117

Target: Aβ extracted from AD brain (human (endogenous in AD brain))
Assay: immunoprecipitation and SDS-PAGE Western blot

In the case of Aβ extracted from AD brain (peptide), the stoichiometry N is reported as 2.
